Where two headings read alike, the source gives them in different places. No end group written: not given here.
Experiments:
[1] = biological target: glycoprotein IIb IIIa (GP IIb IIIa), purified from outdated human platelets (human) (UniProt P08514); experiment: GP IIb IIIa/Fg ELISA, IC50 against the reference GRGDV
[2] = biological target: glycoprotein IIb IIIa (GP IIb IIIa), purified from outdated human platelets (human) (UniProt P08514); experiment: Fg/GP IIb IIIa solid phase ELISA, inhibition of GP IIb IIIa binding to immobilized fibrinogen
[3] = biological target: T1, GP IIb IIIa (Homo sapiens, UniProt P05106+P08514); experiment: Fg/GP IIb IIIa solid phase ELISA (inhibition of GP IIb IIIa binding to immobilized fibrinogen); settings: for half maximal dilution / total units / specific activity (U/mg): Table III; for half maximal dilution: dilution giving half maximal response in ELISA, fractions from 310 g P. ornata; for total units: half maximal dilution multiplied by total volume in ml; for specific activity (U/mg): total units per mg total protein; for activity in GP IIb IIIa /Fg ELISA compared with decorsin purified from whole leech homogenate: specific activity (IC50)
T1 construct: GP IIb IIIa was purified from outdated human platelets as previously described; from tissue; host or cells: outdated human platelets
Experimental: The Fg/GP IIb IIIa ELISA was performed by a modification of the method of Nachman and Leung (Nachman, R. L. et al. (1982) J. Clin. Invest. 69, 263-269) according to the following protocol, with washes of phosphate buffered saline containing 0.01% Tween 20 between each step:
Microtiter plates were coated with purified human fibrinogen (10 μg/ml), washed, and then blocked with TACTS, 0.5% BSA. The plates were washed and samples to be evaluated were added, followed immediately by addition of purified GP IIb IIIa (40 μg/ml) in TACTS, 0.5% BSA (Calbiochem). After a 1 hr incubation, the plate was washed and AP3 (1 μg/ml) was added.
Following a 1 hr incubation and another wash, goat anti-mouse IgG conjugated to horseradish peroxidase was added. A final wash was performed, and developing reagent buffer (0.66 mg/ml o-phenylenediamine dihydrochloride, 0.012% H2 O2, 22 mM citrate, 50 mM phosphate, pH 5.0) added; plates were incubated until color developed.
The reaction was stopped with 1N H2 SO4 and the absorbance at 492 nm measured. A four parameter fit (Marquardt, D. W. (1963) J. Soc. Indust. Appl. Math 11, 431-441) was used to estimate the half maximal inhibition concentration.

[4] = biological target: glycoprotein IIb IIIa (GP IIb IIIa), purified from outdated human platelets (human) (UniProt P08514); experiment: Fg/GP IIb IIIa ELISA units per mg protein
[5] = biological target: glycoprotein IIb IIIa (GP IIb IIIa), purified from outdated human platelets (human) (UniProt P08514); experiment: Fg/GP IIb IIIa ELISA, dilution of the 0.085 mg/ml fraction giving a half maximal response
[6] = biological target: glycoprotein IIb IIIa (GP IIb IIIa), purified from outdated human platelets (human) (UniProt P08514); experiment: Fg/GP IIb-IIIa solid phase ELISA
[7] = biological target: glycoprotein IIb IIIa (GP IIb IIIa), purified from outdated human platelets (human) (UniProt P08514); experiment: Fg/GP IIb IIIa ELISA, dilution of the 0.018 mg/ml fraction giving a half maximal response
[8] = biological target: glycoprotein IIb IIIa (GP IIb IIIa), purified from outdated human platelets (human) (UniProt P08514); experiment: Fg/GP IIb IIIa ELISA, dilution of the 0.020 mg/ml fraction giving a half maximal response
[9] = test system: human platelet rich plasma (PRP)
Experimental: The Fg/GP IIb IIIa ELISA was performed as previously described (Dennis, M. S., Henzel, W. J., Pitti, R. M., Lipari, M. T., Napier, M. A., Deisher, T. A., Bunting S. and Lazarus, R. A. (1990) Proc. Natl. Acad. Sci. USA, 87, 2471-2475; and Seymour, J. L., Henzel, W. J., Nevins, B., Stults, J. T., and Lazarus, R. A. (1990) J. Biol. Chem. 265, 10143-10147).Platelet aggregation assays were carried out in human platelet rich plasma (PRP) as reported earlier (Dennis, M. S., Henzel, W. J., Pitti, R. M., Lipari, M. T., Napier, M. A., Deisher, T. A., Bunting, S. and Lazarus, R. A. (1990) Proc. Natl. Acad. Sci. USA, 87, 2471-2475; and Seymour, J. L., Henzel, W. J., nevins, B., Stults, J. T., and Lazarus, R. A. (1990) J. Biol. Chem. 265, 10143-10147).
Platelet aggregation assays were performed in PRP as follows:
50 ml whole human blood (9 parts) was drawn on 3.8% Na citrate (1 part) from a donor who had not taken any aspirin or related medication for at least two weeks. Blood was centrifuged at 160×g for 10 minutes at 22° C., allowed to stand for five minutes, and the PRP was decanted. Platelet poor plasma (PPP) was prepared from the remaining blood by centrifugation at 2000×g for 25 minutes at 22° C. PRP platelet count was measured on a Baker 9000 hematology analyzer and diluted to about 300,000 platelets/μL using PPP.
Light transmittance was recorded after the addition of ADP (8 μM), which initiated platelet aggregation. The inhibition of platelet aggregation was measured at the maximum aggregation response.

[10] = biological target: T1, GP IIb IIIa; experiment: Binding to immobilized GP IIb IIIa affinity resin, elution with EDTA; settings: eluted by EDTA
Experimental: Immediately before coupling, approximately 10 ml Affi-Prep 10 resin was washed with 300 ml ice cold 50 mM sodium acetate, pH 4.5 in a coarse sintered glass funnel. After removing excess buffer, approximately 4 ml washed resin was transferred to a 15 ml conical tube containing 8 mg purified GP IIb IIIa which had been previously dialyzed into 0.1M sodium bicarbonate, 2 mM CaCl2, pH 8.0.
The coupling was carried out on a rocking platform at room temperature for 2 hours, and then overnight at 4° C. Excess reactive groups on the resin were blocked by incubation with 0.1M ethanolamine, 2 mM CaCl2, pH 9.0 for 1 hour at room temperature. The resin was then transferred to a sintered glass funnel, and washed in an alternating fashion with 20 ml aliquots of 0.1M sodium acetate, pH 4.5, and 0.1M Tris, pH 7.5, each containing 0.5M NaCl and 2 mM CaCl2, to remove any non-covalently bound material. A total of approximately 300 ml of each buffer was used in this cycle washing. Finally, the coupled GP IIb IIIa resin was washed with 100 ml 50 mM Tris, pH 7.5 containing 2 mM CaCl2 and stored at 4° C. prior to use.
The affinity column (ca. 4 ml of resin) was equilibrated in 50 mM Tris, pH 7.5 containing 2 mM CaCl2. The neutralized TFA pool was loaded onto the column at a flow rate of 0.5 ml/min and 25 ml fractions were collected. […]

[11] = biological target: GP IIb IIIa on human platelets (platelet rich plasma) (human) (UniProt P08514)
[12] = biological target: glycoprotein IIb IIIa (GP IIb IIIa), purified from outdated human platelets (human) (UniProt P08514); experiment: Fg/GP IIb IIIa ELISA, dilution of the 0.024 mg/ml fraction giving a half maximal response
[13] = biological target: glycoprotein IIb IIIa (GP IIb IIIa), purified from outdated human platelets (human) (UniProt P08514); experiment: Fg/GP IIb IIIa ELISA, dilution of the 0.113 mg/ml fraction giving a half maximal response
[14] = biological target: T2, GP IIb IIIa on human platelets (platelet rich plasma) (human, UniProt P08514); experiment: cell-based or functional assay
[15] = biological target: T2, GP IIb IIIa on human platelets …; experiment: cell-based or functional assay; remark: listed apart in the source
[16] = Table VI, n in parenthesis, read-out: IC50 (nM) Fg/GP IIb-IIIa solid phase ELISA
[17] = four parameter fit, read-out: IC50 in GP IIb IIIa /Fg ELISA

## decorsin
[1]
  times more potent than GRGDV: 27 fold
[2]
  IC50: 1.5 nM

## IYVRPTNDELNYCGDFRELGQPDKKCRCDGKPCTVGRCKFARGDNDDKCISA [ornatin B, ornatin isoform isolated from P. ornata]
[3]
  half maximal dilution: 1215
  total units: 608
  specific activity (U/mg): 50670 U/mg
[3]; [16]
  IC50: 3.5 ± 0.25 nM

## IYVRPTKDELLYCGEFRELGQPDKKCRCDGKPCTVGRCNFARGDNDDKCI [ornatin E, ornatin isoform isolated from P. ornata]
[3]
  half maximal dilution: 3610
  total units: 1805
  specific activity (U/mg): 42370 U/mg
[3]; [16]
  IC50: 4.5 ± 0.77 nM

## ornatin E
[4]
  specific activity (U/mg): 42400 U/mg
[5]
  half maximal dilution: 3610
[6]
  IC50: 4.5 nM

## ornatin A2
[4]
  specific activity (U/mg): 44500 U/mg
[6]
  IC50: 5.1 nM
[7]
  half maximal dilution: 809

## IYVRPTKDELLYCGEFRELGQPDKKCRC [ornatin D, ornatin isoform from P. ornata]
[3]
  half maximal dilution: 1032
  total units: 516
  specific activity (U/mg): 49615 U/mg
[3]; [16]
  IC50: 3.2 ± 0.35 nM

## ornatin D
[4]
  specific activity (U/mg): 49600 U/mg
[6]
  IC50: 3.2 nM
[8]
  half maximal dilution: 1030

## APRLPQCQGDDQEKCLCNKDECPPGQCRFPRGDADPYCE [decorsin, 39-amino acid RGD protein from the leech Macrobdella decora, GP IIb IIIa antagonist]
[3]; [17]
  IC50: ~1.5 nM
[3]; ratio of IC50 values
  potency relative to pentapeptide GRGDV in GP IIb IIIa /Fg ELISA: about 27 times
[3]
  activity in GP IIb IIIa /Fg ELISA compared with decorsin purified from whole leech homogenate: identical
[3]; listed as synthetic native decorsin
  activity in GP IIb IIIa /Fg ELISA compared with decorsin purified from whole leech homogenate: essentially identical
[9]
  activity in platelet aggregation assay compared with native decorsin: essentially identical
[10]
  binding to GP IIb IIIa receptor (words): bound
[10]; listed as Decorsin
  binding to GP IIb IIIa receptor (words): bind

## GRGDV [GRGDV, reference compound] [listing 1 of 2 here]
[3]; [16]
  IC50: 47.5 ± 6.4 nM
[3]; [17]
  IC50: ~40 nM

## kistrin (from UniProt P30403)
[6]
  IC50: 4.6 nM
[11]
  IC50 (nM), human platelet aggregation assay (ADP activation): 137 nM

## ornatin B
[4]
  specific activity (U/mg): 50700 U/mg
[6]
  IC50: 3.5 nM
[12]
  half maximal dilution: 1220

## N-3 decorsin: isoform which lacks the first three amino terminal residues of decorsin (LPQCQGDDQEKCLCNKDECPPGQCRFPRGDADPYCE)
[3]; [17]
  IC50: ~1.5 nM
[9]
  activity in platelet aggregation assay compared with native decorsin: Comparable activities

## IPQCRDVKESGQPNDKCRCNGKPCTVGKCTIARGDDNDKCT [ornatin A2, ornatin isoform isolated from P. ornata]
[3]; FIG. 8 inset, rechromatography of ornatin A
  activity of C18 rp HPLC peaks in Fg/GP IIb IIIa ELISA: active
[3]
  half maximal dilution: 809
  total units: 405
  specific activity (U/mg): 44505 U/mg
[3]; [16]
  IC50: 5.1 nM

## ornatin C
[4]
  specific activity (U/mg): 39100 U/mg
[13]
  half maximal dilution: 4420
[6]
  IC50: 4.9 nM

## IYVRPTKDELLYCGEFRELGQPDKKCRCDGKPCTVGRCKFARGDADDKCTSA [ornatin C, ornatin isoform isolated from P. ornata]
[3]
  half maximal dilution: 4422
  total units: 2211
  specific activity (U/mg): 39060 U/mg
[3]; [16]
  IC50: 4.9 ± 0.5 nM

## kistrin [reference compound]
[3]; [16]
  IC50: 4.6 ± 0.06 nM
[9]; read-out: IC50 (nM) human platelet aggregation assay, Table VI, ADP activation, n in parenthesis
  IC50: 137 nM

## GRGDV [GRGDV, reference compound] [listing 2 of 2 here]
[9]; read-out: IC50 in platelet aggregation assay, ADP (8 μM) induced, human PRP
  IC50: ~75000 nM

B1: ornatin C (other)
chain: IYVRPTKDELLYCGEFRELGQPDKKCRCDGKPCTVGRCKFARGDADDKCTSA
[14]
  IC50 (nM), human platelet aggregation assay (ADP activation): 324 nM

B2: GRGDV (peptide)
peptide: GRGDV
[15]
  IC50, inhibition of ADP-induced platelet aggregation in human platelet rich plasma: ~75000 nM
[6]
  IC50: 47.5 nM
[2]
  IC50: 40 nM

B3: ornatin E (other)
chain: IYVRPTKDELLYCGEFRELGQPDKKCRCDGKPCTVGRCNFARGDNDDKCI
[14]
  IC50 (nM), human platelet aggregation assay (ADP activation): 516 nM

B4: decorsin (other)
chain: APRLPQCQGDDQEKCLCNKDECPPGQCRFPRGDADPYCE
[15]
  IC50, inhibition of ADP-induced platelet aggregation in human platelet rich plasma: ~300 nM
[14]
  IC50 (nM), human platelet aggregation assay (ADP activation): 314 nM

From patent publication US5227469A, “Platelet aggregation inhibitors from the leech” (Genentech, Inc., priority 1990, dated 1993)
